The source of these data is patent US9969784B2, “Compositions and methods for modulation of immune function” (THE CHILDREN'S HOSPITAL OF PHILADELPHIA, priority 2013, dated 2018).

One assay addresses T1, Itch (Homo sapiens, UniProt Q96J02).
T1 construct: made in house
Description: ubiquitin charging assay (cell free), Itch. The assay is classed as biochemical. As to conditions: E1, E2, ubiquitin, ATP and Mg++, then EDTA, Itch added with the substance. The method, then:
FIGS. 1A-1D. Ndfip1 and Ndfip2 promote ubiquitin charging of Itch. FIG. 1A: E1, E2, ubiquitin, ATP and Mg++ were incubated together to prepare the E2 for ubiquitin transfer. EDTA was added to prevent further transfer of ubiquitin from E1 to E2. This ensures that only a single ubiquitin will be transferred. Itch was then added to the reaction with or without Ndfip1 or Ndfip2. […] FIG. 1C: Schematic diagram of auto-inhibition by Itch and activation by Ndfip1. FIG. 1D: Ndfip peptide mimics therapeutically activate
(§1) There are 9 members of the Nedd4-family of E3 ubiquitin ligases. These ligases are unusual in that there is a high degree of sequence similarity. All family members are composed of a HECT domain (the catalytic subunit), 2-4 WW domains, and a single C2 domain. Auto-inhibition of family members has been described by others, and different mechanisms of auto-inhibition have been proposed. […] We have devised a new way to look at auto-inhibition, namely by using a ubiquitin charging assay which is the initial event in activating Nedd4-family E3 ubiquitin ligases. Ubiquitin charging occurs when an E2 ubiquitin conjugating enzyme transfers ubiquitin to the catalytic cysteine of the Nedd4-family E3 ligase. […] We have determined that Ndfip1 and Ndfip2 are not required for Itch to bind the E2, as association between E2 and Itch occur in the absence of Ndfip1 and Ndfip2. […]

A further assay concerns Nedd4. As to the kind of experiment: ubiquitin charging assay, Nedd4. The class given is biochemical. The following applies: carried out for 30 seconds. The method, then: FIG. 8. Multiple Nedd4-family members likely share this mechanism of auto-inhibition and relief by Ndfip1 and Ndfip2. Nedd4 and Itch were expressed, purified and tested in the ubiquitin charging assay in the presence or absence of Ndfip1 or Ndfip2 as shown. Neither Itch nor Nedd4 were charged with ubiquitin in the assay when Ndfip1 or Ndfip2 were omitted from the assay. These assays were carried out for 30 seconds.
as §1, with “ligase. This event is absolutely required for catalytic activity of the E3 ligase.” for “ligase.”

T1 sequence (Q96J02 whole entry, species assumed): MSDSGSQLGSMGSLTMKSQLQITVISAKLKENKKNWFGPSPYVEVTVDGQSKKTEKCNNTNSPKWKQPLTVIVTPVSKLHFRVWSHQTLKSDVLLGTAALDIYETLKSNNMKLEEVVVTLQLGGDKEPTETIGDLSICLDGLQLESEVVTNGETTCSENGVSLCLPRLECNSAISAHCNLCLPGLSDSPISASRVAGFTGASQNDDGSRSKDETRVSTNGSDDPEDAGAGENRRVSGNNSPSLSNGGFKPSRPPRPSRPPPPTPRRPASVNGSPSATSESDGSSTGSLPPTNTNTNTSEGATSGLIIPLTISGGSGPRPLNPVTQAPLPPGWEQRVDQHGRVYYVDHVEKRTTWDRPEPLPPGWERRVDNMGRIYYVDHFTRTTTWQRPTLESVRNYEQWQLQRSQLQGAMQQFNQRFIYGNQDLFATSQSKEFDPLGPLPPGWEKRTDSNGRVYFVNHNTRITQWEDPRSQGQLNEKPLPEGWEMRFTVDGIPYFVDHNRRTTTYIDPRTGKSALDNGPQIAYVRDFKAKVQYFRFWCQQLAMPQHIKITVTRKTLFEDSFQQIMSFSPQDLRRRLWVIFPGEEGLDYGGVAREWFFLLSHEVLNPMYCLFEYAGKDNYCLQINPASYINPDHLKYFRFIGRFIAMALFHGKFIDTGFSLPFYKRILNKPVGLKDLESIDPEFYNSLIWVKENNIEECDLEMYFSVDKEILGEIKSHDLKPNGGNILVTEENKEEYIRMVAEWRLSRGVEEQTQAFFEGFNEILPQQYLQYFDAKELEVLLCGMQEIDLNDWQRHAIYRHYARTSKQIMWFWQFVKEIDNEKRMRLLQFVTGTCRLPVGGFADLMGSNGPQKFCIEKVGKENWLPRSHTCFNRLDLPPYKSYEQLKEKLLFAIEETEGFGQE
Chain of Nedd4 (P46934 whole entry, species assumed): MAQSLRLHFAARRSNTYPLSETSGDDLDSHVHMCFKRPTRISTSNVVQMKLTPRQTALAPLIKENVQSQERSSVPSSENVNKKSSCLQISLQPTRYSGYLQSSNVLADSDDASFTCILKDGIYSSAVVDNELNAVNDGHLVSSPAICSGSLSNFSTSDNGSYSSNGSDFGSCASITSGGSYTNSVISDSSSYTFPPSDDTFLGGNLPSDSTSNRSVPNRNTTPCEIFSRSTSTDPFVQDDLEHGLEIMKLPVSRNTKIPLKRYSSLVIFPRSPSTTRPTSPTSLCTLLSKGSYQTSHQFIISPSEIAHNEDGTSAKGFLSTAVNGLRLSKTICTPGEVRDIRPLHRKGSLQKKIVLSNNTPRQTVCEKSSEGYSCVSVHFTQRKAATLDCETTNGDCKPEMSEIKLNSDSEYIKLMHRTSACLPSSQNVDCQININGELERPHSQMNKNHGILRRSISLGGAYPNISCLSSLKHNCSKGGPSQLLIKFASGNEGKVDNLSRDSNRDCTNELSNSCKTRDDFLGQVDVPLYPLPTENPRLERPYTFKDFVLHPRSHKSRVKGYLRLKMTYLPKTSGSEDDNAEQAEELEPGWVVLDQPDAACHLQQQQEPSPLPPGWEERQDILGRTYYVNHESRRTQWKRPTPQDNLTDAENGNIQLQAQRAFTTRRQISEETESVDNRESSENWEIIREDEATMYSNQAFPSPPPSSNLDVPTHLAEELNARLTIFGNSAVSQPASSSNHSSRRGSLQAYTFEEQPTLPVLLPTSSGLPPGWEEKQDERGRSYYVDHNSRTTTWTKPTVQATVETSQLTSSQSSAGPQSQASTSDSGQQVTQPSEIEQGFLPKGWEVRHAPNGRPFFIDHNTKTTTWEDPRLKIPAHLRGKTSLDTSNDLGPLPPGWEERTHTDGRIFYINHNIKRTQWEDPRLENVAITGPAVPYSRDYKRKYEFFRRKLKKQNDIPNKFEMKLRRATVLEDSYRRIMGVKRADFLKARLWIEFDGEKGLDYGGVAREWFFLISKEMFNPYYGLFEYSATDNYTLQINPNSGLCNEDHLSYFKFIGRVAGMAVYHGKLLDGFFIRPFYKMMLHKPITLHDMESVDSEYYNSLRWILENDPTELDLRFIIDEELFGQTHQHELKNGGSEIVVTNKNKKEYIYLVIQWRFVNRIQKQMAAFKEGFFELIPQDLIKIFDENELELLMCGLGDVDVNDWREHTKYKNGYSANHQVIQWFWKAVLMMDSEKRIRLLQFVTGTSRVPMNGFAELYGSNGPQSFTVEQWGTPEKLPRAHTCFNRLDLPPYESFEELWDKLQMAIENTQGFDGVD

B1: Ndfip2: adaptor of the Ndfip family that relieves auto-inhibition of Nedd4-family E3 ligases (protein, UniProt Q9NV92 1-336, looked up)
NEDD4 family-interacting …: MARRRSQRVCASGPSMLNSARGAPELLRGTATNAEVSAAAAGATGSEELPPGDRGCRNGGGRGPAATTSSTGVAVGAEHGEDSLSRKPDPEPGRMDHHQPGTGRYQVLLNEEDNSESSAIEQPPTSNPAPQIVQAASSAPALETDSSPPPYSSITVEVPTTSDTEVYGEFYPVPPPYSVATSLPTYDEAEKAKAAAMAAAAAETSQRIQEEECPPRDDFSDADQLRVGNDGIFMLAFFMAFIFNWLGFCLSFCITNTIAGRYGAICGFGLSLIKWILIVRFSDYFTGYFNGQYWLWWIFLVLGLLLFFRGFVNYLKVRNMSESMAAAHRTRYFFLL
For B1, the “ubiquitin charging of Itch” value in the assay with Itch is recorded as “ubiquitin charging of Itch is observed”. Moreover, in the assay with Nedd4, the “relief of Nedd4 auto-inhibition” value was “auto-inhibition was relieved”.
